Source: IntAct's records for PubMed 21212461

B1: NAD-dependent protein deacetylase sirtuin-3, mitochondrial (Homo sapiens), Q9NTG7 (parent)
chain: MAFWGWRAAAALRLWGRVVERVEAGGGVGPFQACGCRLVLGGRDDVSAGLRGSHGARGEPLDPARPLQRPPRPEVPRAFRRQPRAAAPSFFFSSIKGGRRSISFSVGASSVVGSGGSSDKGKLSLQDVAELIRARACQRVVVMVGAGISTPSGIPDFRSPGSGLYSNLQQYDLPYPEAIFELPFFFHNPKPFFTLAKELYPGNYKPNVTHYFLRLLHDKGLLLRLYTQNIDGLERVSGIPASKLVEAHGTFASATCTVCQRPFPGEDIRADVMADRVPRCPVCTGVVKPDIVFFGEPLPQRFLLHVVDFPMADLLLILGTSLEVEPFASLTEAVRSSVPRLLINRDLVGPLAWHPRSRDVAQLGDVVHGVESLVELLGWTEEMRDLVQRETGKLDGPDK

Variants of: B1
Conditions: with ppif_mouse Ppif

Row | Variant | effect of a mutation on the interaction
1 | H248Y | disrupting interaction
